Test [1] deals with Full extracellular domain of mouse amyloid precursor protein (mouse) (UniProt P12023). Briefly: SEC. A general note: In gel filtration, larger molecules generally elute earlier.
The target of the next test is T1, DR6-Fc fusion (UniProt Q9EPU5 42-349).
T1 sequence (looked up): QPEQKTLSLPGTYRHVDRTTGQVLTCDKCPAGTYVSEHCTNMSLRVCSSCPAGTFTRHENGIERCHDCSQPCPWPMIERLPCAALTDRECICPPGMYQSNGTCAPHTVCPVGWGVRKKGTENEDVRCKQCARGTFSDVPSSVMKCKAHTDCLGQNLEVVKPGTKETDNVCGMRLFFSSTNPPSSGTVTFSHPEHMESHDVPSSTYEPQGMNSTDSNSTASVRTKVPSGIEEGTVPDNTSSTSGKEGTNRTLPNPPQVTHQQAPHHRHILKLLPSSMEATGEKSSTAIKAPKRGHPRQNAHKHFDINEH
Briefly: BLI.

A word on the stoichiometry N: it is the number of molecules, sites or subunits per partner or assembly. What is called Kd is the equilibrium constant for the complex coming apart. High values mean weaker binding, low ones tighter binding.

Molecule “Full extracellular domain of mouse amyloid precursor protein (from UniProt P12023-2 18-596) (domain or fragment)” came in with a stoichiometry N in test [1] of 2.

B1: AP-APP-E2 (amino acids 287-506), wild type (domain or fragment, UniProt P12023-2 287-506, looked up)
chain: VRVPTTAASTPDAVDKYLETPGDENEHAHFQKAKERLEAKHRERMSQVMREWEEAERQAKNLPKADKKAVIQHFQEKVESLEQEAANERQQLVETHMARVEAMLNDRRRLALENYITALQAVPPRPHHVFNMLKKYVRAEQKDRQHTLKHFEHVRMVDPKKAAQIRSQVMTHLRVIYERMNQSLSLLYNVPAVAEEIQDEVDELLQKEQNYSDDVLANMI
B1 returned a Kd in the test with DR6-Fc fusion of 85 nM.
